# Reference: IntAct's records for PubMed 17070805
# B1: RING1 and YY1-binding protein (Homo sapiens), Q8N488 (parent)
# chain: MTMGDKKSPTRPKRQAKPAADEGFWDCSVCTFRNSAEAFKCSICDVRKGTSTRKPRINSQLVAQQVAQQYATPPPPKKEKKEKVEKQDKEKPEKDKEISPSVTKKNTNKKTKPKSDILKDPPSEANSIQSANATTKTSETNHTSRPRLKNVDRSTAQQLAVTVGNVTVIITDFKEKTRSSSTSSSTVTSSAGSEQQNQSSSGSESTDKGSSRSSTPKGDMSAVNDESF
# Variants of: B1
# Conditions: with ubc_human UBC
row,Variant,effect of a mutation on the interaction
1,MTMGDKKSPTRPKRQAKPAADEGFWDCSVCAARNSAEAFKCSICDVRKGTSTRKPRINSQLVAQQVAQQYATPPPPKKEKKEKVEKQDKEKPEKDKEISPSVTKKNTNKKTKPKSDILKDPPSEANSIQSANATTKTSETNHTSRPRLKNVDRSTAQQLAVTVGNVTVIITDFKEKTRSSSTSSSTVTSSAGSEQQNQSSSGSESTDKGSSRSSTPKGDMSAVNDESF [T31A;F32A],disrupting interaction

# Variants of: B1
# Conditions: with ubc_human UBC
# Remark: another data set of the same source
row,Variant,effect of a mutation on the interaction
1,MTMGDKKSPTRPKRQAKPAADEGFWDCSVCAARNSAEAFKCSICDVRKGTSTRKPRINSQLVAQQVAQQYATPPPPKKEKKEKVEKQDKEKPEKDKEISPSVTKKNTNKKTKPKSDILKDPPSEANSIQSANATTKTSETNHTSRPRLKNVDRSTAQQLAVTVGNVTVIITDFKEKTRSSSTSSSTVTSSAGSEQQNQSSSGSESTDKGSSRSSTPKGDMSAVNDESF [T31A;F32A],disrupting interaction

# Variants of: B1
# Conditions: with RING1, Q06587-2
# Chain of RING1, Q06587-2 (Q06587 30-406): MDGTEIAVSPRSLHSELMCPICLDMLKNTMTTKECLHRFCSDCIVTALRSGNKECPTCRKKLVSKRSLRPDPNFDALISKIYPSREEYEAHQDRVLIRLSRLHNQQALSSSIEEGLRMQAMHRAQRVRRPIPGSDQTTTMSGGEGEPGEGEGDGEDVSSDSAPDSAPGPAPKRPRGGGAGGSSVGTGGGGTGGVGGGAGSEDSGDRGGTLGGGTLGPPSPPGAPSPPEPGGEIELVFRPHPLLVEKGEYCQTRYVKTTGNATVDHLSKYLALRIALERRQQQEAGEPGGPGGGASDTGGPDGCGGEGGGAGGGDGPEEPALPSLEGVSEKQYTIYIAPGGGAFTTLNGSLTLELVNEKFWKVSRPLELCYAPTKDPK
row,Variant,effect of a mutation on the interaction
1,MTMGDKKSPTRPKRQAKPAADEGFWDCSVCAARNSAEAFKCSICDVRKGTSTRKPRINSQLVAQQVAQQYATPPPPKKEKKEKVEKQDKEKPEKDKEISPSVTKKNTNKKTKPKSDILKDPPSEANSIQSANATTKTSETNHTSRPRLKNVDRSTAQQLAVTVGNVTVIITDFKEKTRSSSTSSSTVTSSAGSEQQNQSSSGSESTDKGSSRSSTPKGDMSAVNDESF [T31A;F32A],disrupting interaction
